Experiment: soluble on expression in E. coli; label from the status in PepcDB or PDB records
In the case of “MAHHHHHHMLQRSFVVRWVPRYIRQVPRVRQKKEQRDAVAMGRSKAPSKRRAECSAVSERDGGVARAAQAKRLEITEEGSTVLESPVSDVSRLLLRKAETLLDSWQKLNMTMTISGSRSDSLMGMKNSSSSQKRDAVAFMAQTEVFAVVKGMIHLSTPHEGSLNRCEEDNKHDSLRQNAFQEYRSTNIISGMVVIPDEATNDAVNYLAQIGRHRVGKVQDKVASLDDSFPISSAIFSLHEVVVFLELYNAMDCEDGELLLRLLEELRRIVFSTEKEIRTENHVLRECEEGVIPRLLLTLSSLGIVEENVLQRIVAINDGSILSRATIARYPESDLIRLLVAFNRFGLHHEPCFHVTAKTLRRNSLRNPLKSFCRNAVNCRVDAAPLGDGEKRSRIPSSMAGLTMNELLEALTAIALSLCREREVVKLLAATIVTAVEDEEYMRCSTKEKAKTREEDLGLLRTLQVHRAAKVCEQMDMPQPSLAHLLHRLSIRYGGLLADGGDVSLSPERVGFYDFITADLVKARCS”, the “soluble on expression in E. coli” value is reported as “not soluble”. With “MGSDKIHHHHHHMQKLLSVIPSVDKLIKQLAGIALIQQYGHQAFVAQARQVIDSLRQHILTHQSLPVDQPADNLLSLIATNLQQTQQIAMKKVFNLTGTILHTNLGRAIWSEAAITAASDAMRHHSALEFDIEAGKRSHRDNTISQLLCEITGAEAACVVNNNAAAVLLMLATFAKGKEVIVSRGELVEIGGAFRIPDIMQQAGCKLVEVGTTNRTHLKDYRAAINENTALLMKVHTSNYQIQGFTHSVSEQQLVELGQEVGLPVMSDLGSGSLIDMATFGLPAEPLVQQKVASGVALVTFSADKLLGGPQAGIIVGKKADIEALQAHPLKRVLRCDKVILAGLEATLRHYLLPDQLTTHLPTLSLLTQSIDHLRVKATRLQNSLSKRLDARYHLQIEQSLAQIGSGALPTERLASLAVTITAPTQRDLLQLEQQFKMLKYPIIGRFAEQKLWLDLRSVAQFDQLIEMLEEK” the “soluble on expression in E. coli” value was “not soluble”. In the case of “MSFPTSITDHPIVQEAVHRLDDLGDPRAGQTLTRCLNDTLARTIRPMPDGTAFVVTGDIPAMWLRDSSTQMMPYLALLKDDTALQHLLLAVLRRQFQQIAHDPYANAFNAEPSGRAHDPEDLCGDPWVWEQKYEVDSLAFPLLLAHRFWAATGRTDHVPGMLRTARTVISVWRTEQDHERLSTYRFRRENGPSSDTLPNAGRGTPVTRTGMTWSGFRPSDDACAFGYNVPANLCAAAALDGAAELAHHTHDTELAEDAARLAAELRAATARHGTVRHPDFGSIYAYEVDGNGNAVLMDDANMPGLLSLPLVANIPTTDPVYLATRGFVLSPRNPTWYRGTAAEGIGSPHTPDEHIWPIAIAVQGLTSNDTTERRWALTTLLATDAGTGQMHESFHKDDPHRFTRPWFSWANAMYAELALDTVGLGTRPLWQAGTLEHHHHHH”, the “soluble on expression in E. coli” value is reported as “soluble”. With “MLDLHLTMSNSMNYMKAATAYINLEALQHNLQRVKQQAPESKIMAVVKANGYGHGLRHIARHALGADAFGVARIEEALQLRASGVVKPILLLEGFYSPGDLPVLVTNNIQTVVHCEEQLQALEQAQLETPVMVWLKVDSGMHRLGVRPEQYQDFVARLHQCENVAKPLRYMSHFGCADELDKSTTVEQTELFLSLTQGCQGERSLAASAGLLAWPQSQLEWVRPGIIMYGVSPFVEKSAVQLGYQPVMTLKSHLIAVREVKAGESVGYGGTWTSQRDTKIGVIAIGYGDGYPRTAPNGTPVVVNGRRVPIAGRVSMDMLTVDLGPDACDRVGDEAMLWGNELPVEEVAAHIGTIGYELVTKLTSRVEMSYYGAGV” the “soluble on expression in E. coli” value was “not soluble”. With “MGSDKIHHHHHHMSHSLTSVFQKIDSLKPQFFSRLTKAIQIPAVSSDESLRSKVFDKAKFISEQLSQSGFHDIKMVDLGIQPPPISTPNLSLPPVILSRFGSDPSKKTVLVYGHYDVQPAQLEDGWDTEPFKLVIDEAKGIMKGRGVTDDTGPLLSWINVVDAFKASGQEFPVNLVTCFEGMEESGSLKLDELIKKEANGYFKGVDAVCISDNYWLGTKKPVLTYGLRGCNYYQTIIEGPSADLHSGIFGGVVAEPMIDLMQVLGSLVDSKGKILIDGIDEMVAPLTEKEKALYKDIEFSVEELNAATGSKTSLYDKKEDILMHRWRYPSLSIHGVEGAFSAQGAKTVIPAKVFGKFSIRTVPDMDSEKLTSLVQKHCDAKFKSLNSPNKCRTELIHDGAYWVSDPFNAQFTAAKKATKLVYGVDPDFTREGGSIPITLTFQDALNTSVLLLPMGRGDDGAHSINEKLDISNFVGGMKTMAAYLQYYSESPEN” the “soluble on expression in E. coli” value was “not soluble”. For “MMHTWFECKIRYEKVMENGMNKKVTEPYLVDALSFTEAEARIIEEITPYISGEFTVSDIKRANYSELFPSEEDAADRWFKCKLFFITLDEKSGAEKKTSTTVLVQASDLRDAVKKLDEGMKGTMADYVIASVAETAIMDVYPYEAEPDVKPEFPDAGKTE”, the “soluble on expression in E. coli” value was “not soluble”. With “MSNGAWTDQENDLIVADYFAMLADDVSGRPYNKAEHRRGLLPLLNDRSEGSVEFKHQNISAVLKGLGEDWIPGYKPAFNFQMTLVDAVARWLALNPAWLGRHSGTRAPTGLAEVRPIWIGPPPTLSNQPPPQELEQMLHIARKFDVAARDERNRALGRAGEERVLAHERATLKSAGRDDLARNVRWVSEEDGDGAGYDIASFALDGSPRLIEVKTTNGWERTPFHISRNELAVAEARRSEWSLFRLWNFAREPKAFELHPPLGAHVSLTATTFQASLHLEHHHHHH” the “soluble on expression in E. coli” value was “not soluble”. In the case of “GIALVLIAAGLGLARLLLGPEVVAALVQRGNLVQTVVASGHIETPYRVEIASQITGTVKDVLVKEGEQVHQGQQLVAIEASELQASVVQAEGAVAQAQARVRQLRELTKPAADEALKQAQANLLNAQAAYERASKLAASGYGTKATLDDATKNLDVARTQVRTAELQVFTTSPGGSDFVMAETQLGQALANLNTAQARLGYATIVAPRDGVLITRNVERGTVVQPGKALLVLAPAGDIQIVVQIDEKNLGQLALGQHAMASADAYPDKRFDATLSYINPSVDINRASVEIKLKVDDPPDYLRQDMTVSVDIATARRDDVVIVPARAVNDAAAAPYVLKASGGRAVRQPVKLGLRGVGFYEVIDGLVPGDRVIPLATGVKPD”, the “soluble on expression in E. coli” value is reported as “soluble”. In the case of “MGSDKIHHHHHHMRAFEKIPAFQQWQKVEAIHRGWSTDLKFKVTKNQETFLLRIFQQEELLAKQQEYQFIKKVAALGFPSSKPFLCAPIPESEQGYMLLTYLEGEDLSDVLPALSPKRQLNLGVEAGRYLNKIHKLLLPERISQREIAQNLYEKKQSQLNKYKESQFCMPYQQPIISYLEKQLPLLQQRPVVYQHGDFHVGNFIYLPTRQVGVIDFNRWDFGDPYEEFYKLQFFSRNVSPLFAYGQLQGYFAGKVPTLFWQFQKLYTFHAGLYSLVWALSFGEKEIRTMEQQYQQLLEDYNCGELLVPKWFSTIQRKGLRF”, the “soluble on expression in E. coli” value is reported as “not soluble”. For “MAHHHHHHMNIFKNIYNTEMMSNNNTVDVNMMDNNPAARLEELRTIMKKNKIDVYILINSDEHNSEIINEKDKKIVKITNYSGADGILIVTKDKPILYVNALYELQAMNELDQNLFTLRISRIDNRDEIFETISSLEFNTIAFDGKNTSVVFYEKLRKALLNAYPKKKIVEKIIYNNNFDDVNKKDDENVLNFLVLEKSLVEIKDYPVNNKTLYIHDRKYNGACAGEKIDKLKQSLMYDIKNVDNLLLSELDEIAYLLNLRGYDYQYSPLFYSYLLFQFDREEQDFSKIVFFTTVKNLPADVKNLLEINKVIVKEYEEIVPYLRDVVIPSIPKHNDDNPDFKKYDISLSPYINLMIYKLFDRKNVLLQNSPVVKMKAVKNDVEIDNMKQAHILDGLALLQFFHWCEQKRKTKELFNETEMSLRHKVDYFRSTKKNFIFPSFSTISASGPNAAVIHYECTDKTNATIKPAIYLLDSGGQYLHGTTDVTRTTHFGEPTAEEKRIYTLVLKGHLRLRKVIFASYTNSSALDFIARENLFNNFMDYNHGTGHGVGLTLNVHEGGCSIGPVGGAPLKKNMVLSNEPGYYMKDKFGVRIENMQYVISKEITDTTEYLSFDDLTMYPYEKKLLDFSLLTNQEIKELNEYHTTIRNTLLPLVKQSPQEYGESVEKYLIEITEPIAIHNN”, the “soluble on expression in E. coli” value was “soluble”. For “MGSDKIHHHHHHMSFTTWTPPAVASERQPFALTLWRAVEAQHVVSTMPLVDSLDEQAVLEAVLDAGKPAVPAEARHLHYLLFTPFRYPPSPWGSRFRAGQDPGVFYGAEEIRTACAELGYWRWRFLNDSPALPRIDARAQTLFQVSVRTEGVALDTPPFDRDSAQWTDPDSHEACQAFGRIAREAGIGLIRYTSVRDPGHGPCGAVMTPRAFDHPLPLATTTWMLTVRRDRVIWQRDDLQQRDSFEFAASLWQRTSERSPEG”, the “soluble on expression in E. coli” value was “not soluble”. With “MITLPTGTKIWIIAGITDMRCGFNGLASKVQNTLKDDPFSGHIFVFRGRSGKMVKILWADRDGLCLFAKRLERGRFVWPVTREGKVHLTPAQLSMLLEGIAWPHPKRTERPGIRI” the “soluble on expression in E. coli” value was “not soluble”. In the case of “MDLTASLEDDQREKLRQYTEFTHQQDYEVAIGTLASLNWNLEQAIEAHLMQEDKNDDEDPEILETIPAAASGRNAGASSSSRFEPEVINIEDDEMPATRGRRRGRAVTPDETTTVDNQVKRLRIDDGSSSSSNGAATHHRGAAIPRQKRGQATEPTPSSSGSSSASFSSRRGTRANPVPPPNQEPAHPESARQNGGILASRHNNHNNQQNNHHHHHQRIPINPRRVDVFNVDSDEDDDSMAIAYEDDDDGVHEVHHSEVCEKDRAISAFLAPKLGNEVVARGSGPPNGRIPMIPDGFSSVSDALRNFVAIFSDRFCSTPQTQAFMPPFYTEPLPAAVKEAFDHPNSEHRRPLLFYINHDRSIAANIFASQVLCSETVSTLIRHQYVLFPWDITSDSNLMLFLEYLQAANMGDVRTIIQRLAMSKIESFPLMAIVVKERNSYRLVDYCRGTDTSDQVMEKLLSGVSEYSDIRMNEQSERREREEREAIRNQQEAEYKASLAADKARMEAKQQEIEEQRLEEERKLREEEEECVRRQTVASTVPEEPPASAPLAEIINVKFRLPEGGQDMRRFRRLESIQTLINYLSSKGYSPDKFKYFNSDFPKKEITRHFDLSHNFADTKWPAREQIFVEEI”, the “soluble on expression in E. coli” value is reported as “not soluble”. For “MSLRLSKTLCMAILAGSTLLAPNALMAMGGPSRVKIDWQIQGQMGMIKMNPYGLSPLTAIIMNNGYVLSDIKKNQMVKLFLNNVNSKMAKTYGGIPIFGLYPSYSKGKVSYTKTANGKSQKVIDEIYKITTPWASIEPSGRTDQRGTLFENVKVLKMDPKFSDRLYLVNNAPGKQSGKDSQSVWNNLVGGAMEWDENSNVFIIDTKGEIRWYYDNNKLMNWGNIYNRGIMISFRQNKDGALTWGFGQRYVKYDCLGREIFNRKLPAVYIDFSHAMDNMQNGHYFFNKYFASLRPDSKHVRTVCDTIIEVDENGNVVDDWRLYKILDPYRSTIIKTLDQSAVCLNIDASKVGKTLSDEELAKMDESDKFGDIAGIGRNWAHAYKGWNKEFQKYLLQPVDKNGNEWFYPVTSLTQYEPDKDSIMVYSATLEWLLILVKVSLGEPKPKIDEFNWGAKEPSVQIQFSGSGTDYQAMPFSVDQAFNPKEGHHHHHH”, the “soluble on expression in E. coli” value was “not soluble”. In the case of “MGSDKIHHHHHHMMITSKSLNRKSIPAPLPSIAEDVLEGLSRTPKSLPPKLLYDATGSDLFEQITCLPEYYPTRTEAGILTVHAEEICSHLRRNVSVSELGAGTATKTRILLRSLVRQQFGVNYFPLDVSDAALQLAKDEVESELSRVKVHPQLGDFDNLTFLEHQSPPRLVLYIGSSIGNLENDAAIALLQNIARNLSTGDKLLLGADLVKDINVMHAAYNDEAGVTALFNKNLLVRINRELSGHFDPESFCHISFWNEAESRIELHLESACRQAVRIDTLDMTFHFDRGERIHTENSYKYTVEHLENLLRSGGFQVEHTWTDPDSWFAVSLGVIT”, the “soluble on expression in E. coli” value is reported as “not soluble”. In the case of “MGSDKIHHHHHHMTVGTLPIWSKTFSYAIRSLCFLHIIHMYAYEFTETRGESMLPTLSATNDYVHVLKNFQNGRGIKMGDCIVALKPTDPNHRICKRVTGMPGDLVLVDPSTIVNYVGDVLVDEERFGTYIKVPEGHVWVTGDNLSHSLDSRTYNALPMGLIMGKIVAANNFDKPFWDGSIRNIWGFKWINNTFLDVQAKSN”, the “soluble on expression in E. coli” value is reported as “not soluble”.

Reference: the DeepSol protein solubility set
